Biological target: PU.1 DNA-binding domain (PU.1^DBD) (human, UniProt P17947 168-270)
Assay: NMR titration

binding result: binds
B1: EWS low-complexity domain (EWS^LCD) (domain or fragment)
chain: ASTDYSTYSQAAAQQGYSAYTAQPTQGYAQTTQAYGQQSYGTYGQPTDVSYTQAQTTATYGQTAYATSYGQPPTGYTTPTAPQAYSQPVQGYGTGAYDTTTATVTTTQASYAAQSAYGTQPAYPAYGQQPAATAPTRPQDGNKPTETSQPQSSTGGYNQPSLGYGQSNYSYPQVPGSYPMQPVTAPPSYPPTSYSSTQPTSYDQSSYSQQNTYGQPSSYGQQSSYGQQSSYGQQPPTSYPPQTGSYSQAPSQYSQQSSSYGQQ

Source: article PMC12107149 (Proceedings of the National Academy of Sciences of the …, 2022)
